pEC50: −log10 of the molar value.
Columns and labels:
[1] = target: human claudin 18 isoform 2 (claudin 18.2) (human); assay: cell-based or functional assay
[2] = target: human claudin 18 isoform 2 (claudin 18.2) (human); assay: immunofluorescence imaging on CHO-Claudin18.2 cells, serial dilution of antibody; table drawn under the curves (run with Hu-2, Hu-9, Hu-10)
[3] = target: human claudin 18 isoform 2 (claudin 18.2) (human); assay: immunofluorescence imaging, CHO-CLDN18.2 cells (FIG. 3B)

Sequence of PC1 (in-house positive control CLDN18.2-specific antibody zolbetuximab) (VH): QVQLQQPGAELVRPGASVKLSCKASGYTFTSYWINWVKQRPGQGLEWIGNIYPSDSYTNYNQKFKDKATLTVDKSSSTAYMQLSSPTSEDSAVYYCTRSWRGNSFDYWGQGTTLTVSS
Sequence of PC1 (in-house positive control CLDN18.2-specific antibody zolbetuximab) (VL): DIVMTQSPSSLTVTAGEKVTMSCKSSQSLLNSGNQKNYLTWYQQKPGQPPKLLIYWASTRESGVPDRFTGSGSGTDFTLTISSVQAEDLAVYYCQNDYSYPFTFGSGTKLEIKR

“PC1 (in-house positive control CLDN18.2-specific antibody zolbetuximab)” showed an ADCC EC50, similar assay with human effector cells (data not shown) [1] of 0.66 nM, a pEC50 [2] of 8.49 and a pEC50 [3] of 8.49.
